One protein from article PMC11771145 (Nature, 2024) can be followed below.

The data set deals with the molecule itself. Put plainly: cryo-EM, 2D class averages.

B1: Vitiosangium bGSDM, engineered with a thrombin site and cleaved by thrombin (active N-terminal pore-forming domain) (domain or fragment, Vitiosangium sp. GDMCC 1.1324)
chain: SGLCSDPAITYLKRLGYNVVRLPREGIQPLHLLGQQRGTVEYLGSLEKLITQPPSEPPAITRDQAAAGINGQKTENLSFSIGINILKSVLAQFGAGAGIEAQYNQARKVRFEFSNVLADSVEPLAVGQFLKMAEVDADNPVLKQYVLGNGRLYVITQVIKSNEFTVAAEKSGGGSIQLDVPEIQKVVGGKLKVEASVSSQSTVTYKGEKQLVFGFKCFEIGVKNGEITLFASQLVPR
Broadly, the stoichiometry N is the number of molecules, sites or subunits per partner or assembly. Take B1: the “stoichiometry N” value fell in the range of 48 to 54 protomers.
